Changes are numbered by the printed parent chain.
T1: Human FcγRIIB (human, UniProt P31994 46-217)
T1 construct: also called FcγRIIB/C; FcRIIB/C
T1 sequence (looked up): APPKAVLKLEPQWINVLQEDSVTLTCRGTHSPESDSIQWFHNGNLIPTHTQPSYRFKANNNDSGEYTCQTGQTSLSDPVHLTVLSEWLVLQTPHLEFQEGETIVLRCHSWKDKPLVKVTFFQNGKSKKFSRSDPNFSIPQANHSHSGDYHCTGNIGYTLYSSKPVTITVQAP

T2: Human FcγRIIA-167R (human, UniProt P12318 36-218)
T2 sequence (looked up): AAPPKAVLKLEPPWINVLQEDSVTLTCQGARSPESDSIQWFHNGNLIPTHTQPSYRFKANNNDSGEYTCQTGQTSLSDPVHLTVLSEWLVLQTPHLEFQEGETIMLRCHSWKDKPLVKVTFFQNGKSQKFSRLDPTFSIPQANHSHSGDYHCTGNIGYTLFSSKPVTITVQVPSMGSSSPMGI

T3: Human FcγRIIA-167H (human, UniProt P12318 36-218)
T3 sequence (looked up): T2 sequence (looked up) with R132H

B1: Antibody A-2 (antibody, human IgG1, kappa)
heavy: QVQLLQSGAAVTKPGASVRVSCEASGYNIRDYFIHWWRQAPGQGLQWVGWINPKTGQPNNPRQFQGRVSLTRHASWDFDTFSFYMDLKALRSDDTAVYFCARQRSDYWDFDVWGSGTQVTVSSASTKGPSVFPLAPSSKSTSGGTAALGCLVKDYFPEPVTVSWNSGALTSGVHTFPAVLQSSGLYSLSSVVTVPSSSLGTQTYICNVNHKPSNTKVDKKVEPKSCDKTHTCPPCPAPELLAGPDVFLFPPKPKDTLMISRTPEVTCVVVDVSHEDPEVKFNWYVDGVEVHNAKTKPREEQYNSTYRVVSVLTVLHQDWLNGKEYKCKVSNKALPLPEEKTISKAKGQPREPQVYTLPPSREEMTKNQVSLTCLVKGFYPSDIAVEWESNGQPENNYKTTPPVLDSDGSFFLYSKLTVDKSRWQQGNVFSCSVMHEALHNHYTQKSLSLSPGK
light: DIQMTQSPSSLSASVGDTVTITCQANGYLNWYQQRRGKAPKLLIYDGSKLERGVPSRFSGRRWGQEYNLTINNLQPEDIATYFCQVYEFVVPGTRLDLKRTVAAPSVFIFPPSDEQLKSGTASVVCLLNNFYPREAKVQWKVDNALQSGNSQESVTEQDSKDSTYSLSSTLTLSKADYEKHKVYACEVTHQGLSSPVTKSFNRGEC
B2: Antibody A-1 (antibody, human IgG1, kappa)
heavy: B1 heavy with M434L, N440S
light: B1 light
B3: Antibody 1.52.64-1 (antibody, human IgG1, kappa)
heavy: B1 heavy with W76F, M434L, N440S
light: B1 light with V19A
B4: Antibody A (antibody, human IgG1, kappa)
heavy: not shown
light: B1 light

Columns and labels:
[1] = molecular target: HIV-1 envelope glycoprotein gp120 of viral isolate 92US712 (HIV-1); experiment: cell-based or functional assay
[2] = molecular target: HIV-1 envelope glycoprotein gp120 of viral isolate 92US657 (HIV-1); experiment: cell-based or functional assay
Human FcγRI = molecular target: T4, Human FcγRI (human, UniProt P12314 16-288); experiment: SPR (Biacore 4000), antibody amine coupled to CM4 chip, FcγRI as analyte (3 and 30 nM), kinetic fit
T4 construct: also called CD64
Description: (§1) The in vitro binding dissociation constants (KD) of selected antibodies described herein for human and cynomolgus macaque (cyno) Fc binding receptors (FcγRs, FcRn) were determined using the Biacore 4000 surface plasmon resonace (SPR) biosensor, and either C1 or CM4 sensor chips (GE Healthcare). Biotinylated human FcRn was purchased from Immunitrack. Biotinylated cynomolgus macaque FcRn and human FcγRIIIB-NA1 and FcγRIIIB-NA2 were purchased from Acro Biosystems.
To determine human FcγRI binding affinities, each test antibody was amine coupled to a CM4 sensor chip at two densities (about 100 RU and about 800 RU). Human FcγRI was tested for binding using a two-step titration series (3 nM and 30 nM). Responses were fit to a simple kinetic model.

Human FcRn [3] = molecular target: T5, Human FcRn (human, UniProt P55899 24-297; P61769 21-119); experiment: SPR (Biacore 4000) at pH 6.0, biotinylated FcRn captured on streptavidin C1 chip, antibody as analyte, steady-state fit
T5 construct: also called neonatal Fc-receptor; biotinylated human FcRn
Description: (§2) The in vitro binding dissociation constants (KD) of selected antibodies described herein for human and cynomolgus macaque (cyno) Fc binding receptors (FcγRs, FcRn) were determined using the Biacore 4000 surface plasmon resonace (SPR) biosensor, and either C1 or CM4 sensor chips (GE Healthcare).
(§3) For human FcRn binding assays, 600 RU of streptavidin was amine coupled to a C1 sensor chip using standard NHS/EDC coupling. The immobilization buffer was PBS+0.005% Tween 20, pH 7.4. Streptavidin was prepared at 50 μg/ml in 10 mM NaAc pH 4.5. Activation, coupling, and blocking steps were run for 10 minutes, each at 10 μl/min. […] Data were collected at pH 6.0 and pH 7.4 in triplicate. The response data at steady-state were fit to a simple binding isotherm.

Human FcγRIIB = molecular target: T1, Human FcγRIIB; experiment: SPR (Biacore 4000), FcγRIIB/C amine coupled to CM4 chip, antibody as analyte, steady-state fit
Cyno FcγRIII = molecular target: T6, Cyno FcγRIII (cynomolgus macaque, UniProt Q8SPW2 17-208); experiment: SPR (Biacore 4000), antibody amine coupled to CM4 chip, cyno FcγRIII as analyte, steady-state fit
T6 construct: also called cynomolgus macaque FcγRIII
Description: as §2
(§4) To determine cynomolgus macaque FcγRIIA, FcγRIIB, FcγRIII and FcγRI binding affinities each test antibody was amine coupled to a CM4 sensor chip at two densities (about 100 RU and about 800 RU). Cyno FcγRIIA and FcγRIIB were tested in a two-fold concentration series up to 1 μM. FcγRIII was tested in a two-fold concentration up to 500 nM. Cyno FcγRI was tested for binding using a two-step titration (3 nM and 30 nM). The response data for FcγRIIA, FcγRIIB, FcγRIII at steady-state were fit to a simple binding isotherm. Responses for FcγRI were fit to a simple kinetic model.

Cyno FcγRIIA = molecular target: T7, Cyno FcγRIIA (cynomolgus macaque); experiment: SPR (Biacore 4000), antibody amine coupled to CM4 chip, cyno FcγRIIA as analyte, steady-state fit
T7 construct: also called cynomolgus macaque FcγRIIA
Description: as §2, §4

Human FcγRIIIB-NA1 = molecular target: T8, Human FcγRIIIB-NA1 (human, UniProt O75015 17-200); experiment: SPR (Biacore 4000), antibody amine coupled to CM4 chip, FcγRIIIB as analyte, steady-state fit
T8 construct: also called CD16b NA1

Human FcγRIIIB-NA2 = molecular target: T9, Human FcγRIIIB-NA2 (human, UniProt O75015 17-200); experiment: as above
T9 construct: also called CD16b NA2

Human FcRn [4] = molecular target: T5, Human FcRn; experiment: SPR (Biacore 4000) at pH 7.4, biotinylated FcRn captured on streptavidin C1 chip, antibody as analyte, steady-state fit
Description: as §2, §3

Cyno FcγRI = molecular target: T10, Cyno FcγRI (cynomolgus macaque, UniProt A0A2K5U901 33-309); experiment: SPR (Biacore 4000), antibody amine coupled to CM4 chip, cyno FcγRI as analyte (3 and 30 nM), kinetic fit
T10 construct: also called cynomolgus macaque FcγRI
Description: as §2, §4

Human FcγRIIIA-176V = molecular target: T11, Human FcγRIIIA-176V (human, UniProt P08637 17-208); experiment: SPR (Biacore 4000), receptor amine coupled to CM4 chip, antibody as analyte, steady-state fit
T11 construct: also called CD16a 176V

Human FcγRIIA-167R = molecular target: T2, Human FcγRIIA-167R; experiment: as above
Human FcγRIIIA-176F = Human FcγRIIIA-176F (human, UniProt P08637 17-208); experiment: as above
Human FcγRIIA-167H = molecular target: T3, Human FcγRIIA-167H; experiment: as above
Cyno FcRn [5] = molecular target: T12, Cyno FcRn (cynomolgus macaque, UniProt Q8SPV9 24-297; Q8SPW0 21-119); experiment: SPR (Biacore 4000) at pH 6.0, biotinylated cyno FcRn captured on streptavidin C1 chip, antibody as analyte, steady-state fit
T12 construct: also called cynomolgus macaque FcRn; biotinylated cyno FcRn
Description: as §1
(§5) To determine cynomolgus macaque FcRn binding affinities, 600 RU of streptavidin was amine coupled to a C1 sensor chip using standard NHS/EDC coupling. The immobilization buffer was PBS+0.005% Tween 20, pH 7.4. Streptavidin was prepared at 50 μg/ml in 10 mM NaAc pH 4.5. Activation, coupling, and blocking steps were run for 10 minutes, each at 10 μl/min. Biotinylated cyno FcRn was captured to about 20 RU. Antibodies were tested for binding to the FcRn surface using a two-fold concentration series up to 1 μM. Data were collected at pH 6.0 and pH 7.4 in triplicate. The response data at steady-state were fit to a simple binding isotherm.

gp120 Bal = gp120 Bal (HIV-1)
gp120 REJO = gp120 REJO (HIV)
gp120 CAAN = gp120 CAAN (HIV)
Cyno FcγRIIB = molecular target: T13, Cyno FcγRIIB (cynomolgus macaque); experiment: SPR (Biacore 4000), antibody amine coupled to CM4 chip, cyno FcγRIIB as analyte, steady-state fit
T13 construct: also called cynomolgus macaque FcγRIIB
Description: as §2, §4

Cyno FcRn [6] = molecular target: T12, Cyno FcRn; experiment: SPR (Biacore 4000) at pH 7.4, biotinylated cyno FcRn captured on streptavidin C1 chip, antibody as analyte, steady-state fit
Description: as §1, §5

human C1q protein = molecular target: T14, human C1q protein (human, UniProt P02745 23-245; P02746 28-253; P02747 29-245); experiment: C1q binding ELISA, antibody coated on plate, titrated human C1q, anti-C1q-HRP detection, n = 3 assays
T14 construct: also called complement protein C1q
Description: A dose response binding ELISA was conducted to determine the relative C1q binding affinity of antibodies described herein. To conduct they assay, a 384-well Maxisorp plate was coated with 25 μl of antibody solution at 5 μg/mL in PBS pH 7.4 overnight at 4° C. Plates were then blocked with 75 μL of 1% BSA in PBS for 2 hours and washed 4 times with PBS+0.05% Tween 20 (PBST). Next, 25 μL of a three-fold serial dilution of human C1q protein in PBS+5% BSA was added to the plates. Plates were incubated with shaking at 600 rpm for one hour, washed 4 times with PBST and then 25 μL of anti-C1q-HRP conjugated polyclonal antibody was added in PBS+5% BSA. Plates were incubated with shaking at 600 rpm for 15 minutes, washed 8 times with PBST and then developed using 3,3′,5,5′-Tetramethylbenzidine (TMB) substrate and quenched with HCl.

| Binder | Kd (Human FcγRI) [nM] | Kd (Human FcRn [3]) [nM] | Kd (Human FcγRIIB) [nM] | Kd (Cyno FcγRIII) [nM] | Kd (Cyno FcγRIIA) [nM] | Kd (Human FcγRIIIB-NA1) [nM] | Kd (Human FcγRIIIB-NA2) [nM] | Kd (Human FcRn [4]) [nM] | Kd (Cyno FcγRI) [nM] | Kd (Human FcγRIIIA-176V) [nM] | Kd (Human FcγRIIA-167R) [nM] | Kd (Human FcγRIIIA-176F) [nM] | Kd (Human FcγRIIA-167H) [nM] | Kd (Cyno FcRn [5]) [nM] | EC50 (gp120 Bal) [nM] | EC50 (gp120 REJO) [nM] | EC50 (gp120 CAAN) [nM] | Kd (Cyno FcγRIIB) [nM] | Kd (Cyno FcRn [6]) [nM] | also measured |
| --- | --- | --- | --- | --- | --- | --- | --- | --- | --- | --- | --- | --- | --- | --- | --- | --- | --- | --- | --- | --- |
| B1 | – | – | – | – | – | – | – | – | – | – | – | – | – | – | – | – | – | – | – | ADCC EC50, NK Donor 1 [1]: 0.18 µg/mL; ADCC EC50, NK Donor 2 [1]: 0.08 µg/mL; ADCC EC50, NK Donor 3 [1]: 0.2 µg/mL; ADCC Emax, NK Donor 1 [1]: 76%; ADCC Emax, NK Donor 2 [1]: 60%; ADCC Emax, NK Donor 3 [1]: 60%; ADCC EC50, NK Donor 1 [2]: 0.54 µg/mL; ADCC EC50, NK Donor 2 [2]: 0.81 µg/mL; ADCC EC50, NK Donor 3 [2]: 1.13 µg/mL; ADCC Emax, NK Donor 1 [2]: 59%; ADCC Emax, NK Donor 2 [2]: 51%; ADCC Emax, NK Donor 3 [2]: 56% |
| B2 | 0.002 | 38 | 1600 | 7.1 | 1100 | 59 | 56 | 1700 | 0.005 | 59 | 130 | 52 | 131 | 16 | 0.06 | 2.37 | 2.17 | 240 | 4300 | – |
| B3 | 0.0012 | 49 | 1900 | 8 | 1180 | 64 | 55 | 1120 | 0.005 | 67 | 199 | 63 | 221 | 22 | 0.07 | 4.02 | 3.79 | 280 | 5300 | – |
| B4 | 0.107 | 485 | 11000 | 200 | 2000 | 2000 | 1500 | 42000 | 0.038 | 670 | 3000 | 2300 | 1800 | 1100 | 0.05 | 2.21 | 1.84 | 895 | 12800 | EC50 (human C1q protein): 2.2 nM |
